T1: human DLL3, His tag (acrobiosystems, DL3-H52H4) (human, UniProt Q9NYJ7 27-492)
T1 construct: Bought; also called human DLL3 protein; free DLL3; not shown: His tag
T1 sequence (looked up): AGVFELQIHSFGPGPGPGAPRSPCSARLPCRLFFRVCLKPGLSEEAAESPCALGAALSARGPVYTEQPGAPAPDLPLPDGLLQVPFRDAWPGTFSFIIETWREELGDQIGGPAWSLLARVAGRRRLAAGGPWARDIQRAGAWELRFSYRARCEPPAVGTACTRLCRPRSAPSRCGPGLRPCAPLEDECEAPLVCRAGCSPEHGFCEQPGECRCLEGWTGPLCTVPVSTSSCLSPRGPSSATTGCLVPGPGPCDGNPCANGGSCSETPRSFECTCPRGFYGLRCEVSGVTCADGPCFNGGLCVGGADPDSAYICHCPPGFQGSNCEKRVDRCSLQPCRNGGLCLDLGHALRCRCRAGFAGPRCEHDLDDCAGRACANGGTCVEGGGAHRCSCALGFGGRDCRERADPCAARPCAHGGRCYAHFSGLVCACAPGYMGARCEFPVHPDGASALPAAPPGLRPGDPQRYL

T2: recombinant DLL3 protein (purchased from ACRO, DL3-H5255) (human, UniProt Q9NYJ7 27-479)
T2 construct: Bought; also called human DLL3 protein; hDLL3
T2 sequence (looked up): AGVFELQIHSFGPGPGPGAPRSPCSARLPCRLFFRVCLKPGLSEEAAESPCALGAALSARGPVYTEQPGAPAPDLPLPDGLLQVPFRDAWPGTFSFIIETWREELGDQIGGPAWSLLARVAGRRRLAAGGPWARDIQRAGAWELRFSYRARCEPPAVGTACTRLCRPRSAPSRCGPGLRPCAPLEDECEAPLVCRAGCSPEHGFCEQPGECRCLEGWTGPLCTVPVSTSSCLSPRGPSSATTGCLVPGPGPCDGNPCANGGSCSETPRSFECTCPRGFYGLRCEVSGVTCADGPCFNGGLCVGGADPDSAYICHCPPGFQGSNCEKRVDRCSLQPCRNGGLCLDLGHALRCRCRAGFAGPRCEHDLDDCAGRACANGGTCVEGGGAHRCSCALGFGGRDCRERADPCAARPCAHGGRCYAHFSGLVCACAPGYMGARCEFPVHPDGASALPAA

T3: human DLL1 (purchased from Acro, DL1-H52H8) (human, UniProt O00548 18-540)
T3 construct: Bought; also called hDLL1
T3 sequence (looked up): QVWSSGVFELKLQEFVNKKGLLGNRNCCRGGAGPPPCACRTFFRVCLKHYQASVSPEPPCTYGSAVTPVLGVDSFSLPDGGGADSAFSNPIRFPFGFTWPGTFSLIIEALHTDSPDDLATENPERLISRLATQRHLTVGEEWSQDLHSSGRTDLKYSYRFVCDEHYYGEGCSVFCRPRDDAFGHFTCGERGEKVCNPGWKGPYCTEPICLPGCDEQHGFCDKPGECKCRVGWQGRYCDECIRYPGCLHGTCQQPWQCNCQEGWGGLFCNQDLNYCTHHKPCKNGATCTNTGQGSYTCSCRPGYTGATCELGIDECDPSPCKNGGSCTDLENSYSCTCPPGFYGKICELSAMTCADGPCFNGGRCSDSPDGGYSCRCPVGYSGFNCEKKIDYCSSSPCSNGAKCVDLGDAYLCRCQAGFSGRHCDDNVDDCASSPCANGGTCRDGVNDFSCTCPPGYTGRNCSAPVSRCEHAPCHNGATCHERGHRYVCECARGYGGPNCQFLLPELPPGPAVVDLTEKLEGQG


How the values were obtained:
[1] = target: T1, human DLL3, His tag (acrobiosystems, …); assay: BLI (Octet 96e), antibody on sensor, DLL3-His 100-3.13 nM in solution
Procedure: To assess the affinity of antibodies for human DLL3 protein, this study employed the BLI method to detect the binding kinetics curves of immobilized antibodies with free DLL3. The method was conducted according to the instrument's user manual (supplier: Fortebio, equipment model: Octet 96e). Briefly, AMC sensors were equilibrated for 60 s with Loading Buffer/Sample dilution buffer (1×PBS, pH7.4, with 0.1% BSA and 0.02% Tween-20) to obtain Baseline 1. The antibodies to be detected were diluted with Loading Buffer to a concentration of 10 ug/ml and bound to the equilibrated sensors, after which the sensors were re-equilibrated with Loading Buffer to obtain Baseline 2. The antibody-loaded sensors were then placed in human DLL3, His tag (supplier: acrobiosystems, catalog number: DL3-H52H4) diluted with Sample Dilution Buffer to concentrations ranging from 100 to 3.13 nM for 90 s to obtain the antibody-protein binding curve. Then, the sensors combined with antigen were placed in the Sample Dilution Buffer again and dissociated for 180 s, and the dissociation curve was obtained. The k-on and k-off values of the antibody-protein binding were calculated based on the binding and dissociation curves, and the KD values were calculated, with the results shown in Table 4.

[2] = target: T2, recombinant DLL3 protein (purchased …); assay: ELISA, plate-coated human DLL3 protein 1 µg/ml
Excerpt: Six 6-week-old SPF grade female Balb/C mice (purchased from Shanghai Jihui Laboratory Animal Care Co., Ltd.) were selected and randomly divided into two groups, A and B. They were immunized with recombinant DLL3 protein (purchased from ACRO, DL3-H5255) at two-week intervals. Freund's complete adjuvant was used for the first immunization and Freund's incomplete adjuvant was used for subsequent immunizations. On days 35 and 49, blood samples were collected from the mice via orbital bleeding, and the immune serum titers of the mice were detected using conventional methods of ELISA and Flow Cytometry (FACS). ELISA detection method: DLL3 protein was diluted with PBS to a concentration of 1 μg/ml. 100 μl/well was added to a 96-well ELISA plate and incubated overnight at 4° C. The next day, the supernatant was discarded, and each well was blocked with 200 μl of 2% milk in PBS for 2 hours. After discarding the blocking solution, the wells were washed 3 times with 200 μl of PBST (0.1% Tween20). The serum to be detected was pre-diluted 100 times as the starting concentration, followed by a 3-fold gradient dilution across 11 concentrations, with 100 μl added to each well of the ELISA plate. After incubating at room temperature for 1 hour, the supernatant was discarded and the wells were washed 5 times with 200 μl of PBST (0.1% Tween20). Then, 100 μl of HRP-labeled goat anti-mouse secondary antibody (Jackson, 1:10000) was added and incubated at room temperature for 1 hour. After discarding the supernatant, the wells were washed 7 times with 200 μl of PBST (0.1% Tween20). 100 μl of TMB chromogen solution was added to each well for 10 minutes. The reaction was terminated with 2M HCl, and absorbance value at 450 nm was read with a Microplate Reader (purchased from Biotek, Elx808).
For the hybridoma clones with good binding and internalization activities identified in Example 5, the heavy chain variable region sequences were synthesized and cloned into the pFUSEss-CHIg-hG1 vector (purchased from InvivoGen, catalog number pfusess-hchgl) comprising the amino acid sequence of the human antibody IgG1 heavy chain constant region by homologous recombination.

[3] = target: T4, human DLL4 (purchased from Acro, DL4-H5227) (human, UniProt Q9NR61 27-524); assay: ELISA on plate-coated human DLL4 protein (1 µg/ml), HRP goat anti-human secondary, OD 450 nm [right panel]
T4 construct: Bought; also called hDLL4
Procedure: (§1) The chimeric antibodies obtained in Example 6 were evaluated for their binding abilities to human DLL1 (purchased from Acro, DL1-H52H8) and DLL4 (purchased from Acro, DL4-H5227) proteins using the ELISA method. The ELISA detection method involved diluting DLL1 and DLL4 proteins with PBS to a final concentration of 1 μg/ml and coating them onto 384-well ELISA plates (purchased from Corning, 3700) at 4° C. overnight. The next day, the supernatant in the plate wells was discarded, and the wells were blocked with 80 μl of 3% milk (dissolved in PBS) for 2 hours, followed by washing three times with 80 μl of PBST (0.1% Tween20). […] After washing with 80 μl of PBST (0.1% Tween20) for five times, 25 μl of HRP-labeled goat anti-human secondary antibody (Jackson, 1:10000) was added to each well and incubated at room temperature for 1 hour, discard the supernatant, and the wells were then washed seven times with 80 μl of PBST (0.1% Tween20). After adding 25 μl of TMB chromogen solution for 10 minutes, the reaction was terminated with 2M HCl, and the absorbance value at 450 nm was measured with a Microplate reader (purchased from Biotek, Elx808). […] To assess the cross-reactivity of the antibodies with mouse and monkey DLL3, mouse DLL3-expressing plasmid pCMV3-mDLL3 (purchased from Beijing Yiqiao, MG58052-UT) and monkey DLL3-expressing plasmid pCMV3-rheDLL3 (purchased from Beijing Yiqiao, CG90919-UT) were used to construct overexpressing cell lines. The construction of overexpressing cells was as described in Examples 2-3. The binding abilities of the chimeric antibodies to these cells were determined by flow cytometry to assess the cross-reactivity of the antibodies with different species.

[4] = target: T4, human DLL4 (purchased from Acro, …); assay: ELISA, plate-coated protein 1 µg/ml
Procedure: as §1

[5] = target: T3, human DLL1 (purchased from Acro, …); assay: ELISA on plate-coated human DLL1 protein (1 µg/ml), HRP goat anti-human secondary, OD 450 nm [left panel]
Procedure: as §1

T4 sequence (Q9NR61 27-524 limits assumed): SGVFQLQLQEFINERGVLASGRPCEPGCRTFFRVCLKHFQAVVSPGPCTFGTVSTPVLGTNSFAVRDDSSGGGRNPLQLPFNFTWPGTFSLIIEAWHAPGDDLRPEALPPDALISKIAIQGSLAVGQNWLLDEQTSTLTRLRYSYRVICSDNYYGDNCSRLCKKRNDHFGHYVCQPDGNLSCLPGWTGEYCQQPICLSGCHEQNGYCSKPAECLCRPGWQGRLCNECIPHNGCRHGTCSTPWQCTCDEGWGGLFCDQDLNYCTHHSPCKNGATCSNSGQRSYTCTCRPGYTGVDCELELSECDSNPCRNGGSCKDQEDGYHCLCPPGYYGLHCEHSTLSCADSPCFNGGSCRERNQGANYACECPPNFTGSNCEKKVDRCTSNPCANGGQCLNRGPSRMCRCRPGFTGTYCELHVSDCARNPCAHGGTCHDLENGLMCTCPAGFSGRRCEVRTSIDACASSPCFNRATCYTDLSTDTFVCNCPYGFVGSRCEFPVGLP

Kd [1] [nM] | koff [1] [s⁻¹] | kon [1] [M⁻¹ s⁻¹] | EC50 [2] [µg/mL] | binding result [3] | binding result [4] | binding result [5] | Binder
0.0991 | 0.000168 | 1.69e+06 | 0.0159 | no binding (tested: 20 µg/ml) |  |  | ch36H10 (antibody, human IgG1, kappa, V domains shown, Chimeric: murine variable regions on human IgG1 heavy and kappa light constant regions; also called chimeric antibody 36H10) VH: EVQFQQSGPELVKPGASVKISCKASGYTFTDYNIHWVRQSQGKSLEWIGLIYPFNGGIVYNQKFKSKATLTVDNSSTSAYMELRSLSSEDSAVYFCARLNWEGYWGQGSTLIVSS VL: DIKMTQSPSSIYAFLGERVTITCKASQDINSYLSWFQQKPGKSPKTLIYRANRLVGGVPSRFSGSGSGQDYSLTISSLEYEDVGDYYCLQYAEFPYTFGGGTKLEIKR
0.104 | 0.000111 | 1.07e+06 | 0.0115 |  | no binding (tested: up to 20 µg/ml) |  | ch4H7 (antibody, human IgG1, kappa, V domains shown, Chimeric: murine variable regions on human IgG1 heavy and kappa light constant regions; also called chimeric antibody 4H7) VH: EVQLQQSGAELVRPGALVKLSCKASGFNFKDYYIHWVKQRPELGLEWIGWIDPENGNAIYDPKFQDKASITADTSSNTAYLHLSSLTSEGTAVYYCASEDAYYPFAYWGQGTLVTVSA VL: DIVMSQSPSSLAVSVGEKVTMRCKSSQSLLYSSNQKNYLAWYQQKPGQSPKLLIYWASTRESGVPDRFTGSGSGTDFTLTISSVKAEDLAVYFCQQYYSYRTFGGGTKLEIKR
 |  |  | 0.0233 |  |  | no binding (tested: 20 µg/ml) | FDA031 (antibody, human IgG1, kappa, V domains shown, also called anti-DLL3 antibody FDA031) VH: QVQLVQSGAEVKKPGASVKVSCKASGYTFTRYWIHWIRQAPGQGLEWMGYINPTTVYTEFNQNFKDRVTMTRDTSTSTVYMELSSLRSEDTAVYYCARGGSNFFDYWGQGTTVTVSS VL: AIQLTQSPSSLSASVGDRVTITCRASENIYYNLAWYQQKPGKAPKLLIYTANSLEDGVPSRFSGSGSGTDFTLTISSLQPEDFATYFCKQAYDVPPTFGGGTKLEIKR

From patent US20250114467A1 (SHANGHAI FUDAN ZHANGJIANG BIO PHARMACEUTICAL, published 2025)
